Data from US7041458B2, “Methods and reagents for determining protein S” (priority 1996, dated 2006).
Where two headings read alike, the source gives them in different places. Blank lines part the entries; values can stand above or below the molecule they belong to. Bridges are numbered along the chain shown (N, C = ends). Where no end group is shown, it is not given here.

Tests used:
[1] = target: T1, protein S-C4BP interaction (Homo sapiens, UniProt P20851); experiment: Peptide inhibition of the protein S-C4BP interaction by surface plasmon resonance (BIAcore, immobilized C4BP); format: binding; conditions: for effect on binding of human protein S to C4BP (SPR response): 50 nM protein S, peptide up to 100 μM (2000-fold excess); for IC50: 50 nM human protein S, immobilized C4BP, read-out: half maximum inhibition, peptide concentration; for inhibition of the protein S-C4BP interaction (summary of the above tests): up to 2000-fold excess over protein S
T1 construct: C4BPβ was first isolated from human plasma in the form of the protein S-C4BP complex; from tissue; host or cells: human plasma
T1 sequence (P20851 18-252): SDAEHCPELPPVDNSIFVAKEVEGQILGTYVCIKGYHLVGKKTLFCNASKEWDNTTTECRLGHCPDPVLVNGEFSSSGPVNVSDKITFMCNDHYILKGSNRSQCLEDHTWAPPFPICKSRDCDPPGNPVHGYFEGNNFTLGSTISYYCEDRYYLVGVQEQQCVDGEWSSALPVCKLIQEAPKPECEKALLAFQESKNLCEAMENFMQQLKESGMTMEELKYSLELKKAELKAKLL
T1 sequence (P04003 49-597 partner): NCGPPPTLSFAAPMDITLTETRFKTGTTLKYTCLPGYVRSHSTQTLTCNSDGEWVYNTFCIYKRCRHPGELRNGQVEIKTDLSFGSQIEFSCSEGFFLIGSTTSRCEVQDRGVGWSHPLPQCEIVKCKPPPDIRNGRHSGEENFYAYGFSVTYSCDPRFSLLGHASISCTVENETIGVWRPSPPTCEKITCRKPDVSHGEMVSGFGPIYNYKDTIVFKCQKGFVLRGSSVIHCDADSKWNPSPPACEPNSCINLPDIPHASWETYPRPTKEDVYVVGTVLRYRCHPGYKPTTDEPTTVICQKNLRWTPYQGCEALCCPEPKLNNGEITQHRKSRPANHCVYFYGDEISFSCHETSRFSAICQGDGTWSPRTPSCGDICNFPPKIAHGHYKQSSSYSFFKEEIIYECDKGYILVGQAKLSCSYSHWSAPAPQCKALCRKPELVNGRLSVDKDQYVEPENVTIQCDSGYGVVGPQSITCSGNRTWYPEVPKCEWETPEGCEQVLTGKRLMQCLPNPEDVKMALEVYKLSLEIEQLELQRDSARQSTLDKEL
Procedure: E. Peptide Inhibition of the Protein S-C4BP Interaction According to Surface Plasmon Resonance Studies.
The surface plasmon resonance studies were performed using a BIAcore™ apparatus from Pharmacia Biosensor AB. Immobilization of C4BP to the dextran coated gold surface of a sensorchip was performed at a flow rate of 5 μl/min, using HC as flow buffer. Equal volumes of 0.1 M NHS and 0.1 M EDC were first mixed, whereafter 30 μl of the mixture was flown over the sensorchip surface to activate the carboxymethylated dextran. C4BP was then injected over the sensorchip (40 μl of a 60 μg/ml solution in 10 mM NaOAc at pH 4.75), whereafter unreacted NHS-ester groups were blocked by 15 μl 1M ethanolamine (pH 8.5). The system was regenerated by addition of 15 μl 0.1 M HCl, which removes all non-covalently bound molecules. The immobilized amount of C4BP was 8000 RU. Protein S association was monitored with 50 nM human protein S in HC buffer in a continuous flow of 1 μl per minute during 45 minutes. The ability of each peptide to inhibit the protein S binding was studied by following the association to C4BP for mixtures of protein S and peptide. In BIAcore™, the total amount of bound material is measured, and the peptides are 25-fold smaller than protein S, inhibition of protein S-binding by peptide binding will drastically lower the observed response during the association phase. The percent protein S bound, X, was calculated as X=(S−0.04Smax)/0.96Smax where S is the measured response and Smax is the response obtained in the absence of peptide.
As disclosed in Section E, the ability of the synthetic peptides to inhibit the binding of human protein S to C4BP was also studied using surface plasmon resonance on a BIA-core™ system.
(§1) In these figures, peptide inhibition of the protein S-C4BP interaction is shown as the amount of protein S bound (relative to the amount bound in the absence of peptide) versus concentration of the nine peptides listed in Table 1: (o) SL1, (♦) SL2, (□) SL3, (+) SL4, (⋄) SL5, (●) SL6, (▾) SL7, (Δ) BD4 & (∇) BD6. In FIG. 5A, the result from an equilibrium binding assay using immobilized C4BP in microtiter wells and radiolabelled human protein S is shown. […] In FIG. 5B, the result from surface plasmon resonance assay on a BIAcore™ sensorchip is shown. The amount of protein S bound, X, was calculated from the observed signal intensity, S, compared to the maximum signal intensity in the absence of peptide Smax, as X=(S−0.04)/0.96 Smax.

[2] = target: T2, C4BP (Homo sapiens, UniProt P20851); conditions: Ca2+-free; read-out: dissociation constant KD of the complex with C4BP; cited from earlier work
T2 sequence (P20851 18-252): T1 sequence (P20851 18-252)
T2 sequence (P04003 49-597 partner): T1 sequence (P04003 49-597 partner)

[3] = target: T1, protein S-C4BP interaction; experiment: Peptide inhibition of the protein S-C4BP interaction in microtiter plates (equilibrium binding assay, 125I-labelled protein S tracer, immobilized C4BP); conditions: displacement of 125I-labelled protein S from immobilized C4BP, EDTA buffer; read-out: half-maximum inhibition
Procedure: D. Peptide Inhibition of the Protein S-C4BP Interaction in Microtiter Plates.
(§2) Microtiter plates were coated with C4BP, 50 μl/well, 10 μg/ml in 0.075 M sodium carbonate buffer, pH 9.6. The plates were incubated over night at 4° C. and then washed with TBS, pH 7.5, containing 0.1% Tween 20. […] The wells were then washed and the amount of bound protein S detected using a γ-counter.
As disclosed in Section D, the synthetic peptides were tested for their ability to displace binding of a ^125I-labelled protein S tracer to immobilized C4BP (FIG. 5A).
as §1

[4] = target: T2, C4BP; experiment: Fluorescence polarization titration of peptides with C4BP (results not shown); format: binding; conditions: read-out: dissociation constant KD of the peptide-C4BP complex
Description: The difference in KD observed for the peptide and protein might in part be due to post translational modification of the protein.

[5] = target: T3, C4b-binding protein (C4BP), species containing the protein S binding β-chain, purified from human plasma (human, UniProt P04003 49-597; P20851 18-252); experiment: SPR (BIAcore) competition: 50 nM human protein S mixed with peptide, flowed over immobilised C4BP (8000 RU), HC buffer; percent protein S bound calculated from the response
T3 construct: mature; Isolated from human plasma as the protein S-C4BP complex, dissociated in 3 M guanidine-HCl and purified further; predominantly C4BPβ, and a minor proportion lacking the β-chain may be present; Immobilised on microtiter wells or on a CM5 sensorchip; also called C4BPβ
T3 sequence (looked up) 1: T1 sequence (P04003 49-597 partner)
T3 sequence (looked up) 2: T1 sequence (P20851 18-252)
Procedure: The surface plasmon resonance studies were performed using a BIAcore™ apparatus from Pharmacia Biosensor AB. Immobilization of C4BP to the dextran coated gold surface of a sensorchip was performed at a flow rate of 5 μl/min, using HC as flow buffer. Equal volumes of 0.1 M NHS and 0.1 M EDC were first mixed, whereafter 30 μl of the mixture was flown over the sensorchip surface to activate the carboxymethylated dextran. C4BP was then injected over the sensorchip (40 μl of a 60 μg/ml solution in 10 mM NaOAc at pH 4.75), whereafter unreacted NHS-ester groups were blocked by 15 μl 1M ethanolamine (pH 8.5). […] Protein S association was monitored with 50 nM human protein S in HC buffer in a continuous flow of 1 μl per minute during 45 minutes. […] The percent protein S bound, X, was calculated as $$X=(S-0.04Smax)/0.96Smax$$
In these figures, peptide inhibition of the protein S-C4BP interaction is shown as the amount of protein S bound (relative to the amount bound in the absence of peptide) versus concentration of the nine peptides listed in Table 1: (o) SL1, (♦) SL2, (□) SL3, (+) SL4, (◊) SL5, (●) SL6, (▼) SL7, (Δ) BD4 & (▽) BD6. […] The amount of protein S bound, X, was calculated from the observed signal intensity, S, compared to the maximum signal intensity in the absence of peptide $Smax$, as $X=(S-0.04)/0.96\ Smax$.

[6] = target: T3, C4b-binding protein (C4BP), species …; experiment: competition, equilibrium binding in microtiter wells: peptide against a trace of 125I-labelled human protein S on immobilised C4BP, TBS with 10 mM EDTA, 4 °C overnight, gamma counting
Procedure: as §2
as §1, with “(◊)” for “(⋄)”, “(▼)” for “(▾)”, “(▽)” for “(∇)”, “$Smax$,” for “Smax,”, “$X=(S-0.04)/0.96\ Smax$.” for “X=(S−0.04)/0.96 Smax.”

[7] = target: T3, C4b-binding protein (C4BP), species …; experiment: unlabelled protein S competing with 125I-protein S tracer for immobilised C4BP in microtiter wells, EDTA buffer
Procedure: as §2
as §1, with “(◊)” for “(⋄)”, “(▼)” for “(▾)”, “(▽)” for “(∇)”, “$Smax$,” for “Smax,”, “$X=(S-0.04)/0.96\ Smax$.” for “X=(S−0.04)/0.96 Smax.”

Molecule: SDQQSHLEFRVNNLEKSTPLK [SL3]
effect on binding of human protein S to C4BP (SPR response) [1]: the same response was observed as with protein S alone

Molecule: plasma purified human protein S: plasma purified human protein S, unlabelled competitor of radiolabelled protein S
Kd [2]: 0.0065 µM

Molecule: DKAMKAKVATYLGGLPDVPFSAT [SL4]
effect on binding of human protein S to C4BP (SPR response) [1]: the same response was observed as with protein S alone

IC50 [3]: 100 to 200 µM | IC50 [1]: 30 to 120 µM | Kd [4]: ≤ 1 µM
Molecule: LVTVEKGSYYPGSGIAQFHIDYNNVSSAEGWHVN [SL7]

IC50 [3]: 100 to 200 µM | IC50 [1]: 30 to 120 µM | Kd [4]: ≤ 1 µM
Molecule: SGIAQFHIDYNNVSSAEGWHVN [SL6]

Molecule: LVTVEKGSYYPGSGIAQ [SL5]
effect on binding of human protein S to C4BP (SPR response) [1]: the same response was observed as with protein S alone

inhibition of the protein S-C4BP interaction (summary of the above tests) [1]: gave no inhibitory effect | inhibition of the protein S-C4BP interaction (summary of the above tests) ([1]; listed as 405–437): did not show any inhibitory effect
Molecule: LDGCIRSWNLMKQGASGIKEIIQEKQNKHCLVT (disulfide 4-30 (inferred)) [BD4, reference compound]
effect on binding of human protein S to C4BP (SPR response) [1]: the same response was observed as with protein S alone

Molecule: KPENGLLETKVYFAGFPRK [SL1]
effect on binding of human protein S to C4BP (SPR response) [1]: the same response was observed as with protein S alone

IC50 [3]: 100 to 200 µM | IC50 [1]: 30 to 120 µM | Kd [4]: ≤ 1 µM
Molecule: EKGSYYPGSGIAQFHIDYNNVS [SL2]

inhibition of the protein S-C4BP interaction (summary of the above tests) [1]: gave no inhibitory effect | inhibition of the protein S-C4BP interaction (summary of the above tests) ([1]; listed as 595–628): did not show any inhibitory effect
Molecule: YNGCMEVNINGVQLDLDEAISKHNDIRAHSCPSV (disulfide 4-31 (inferred)) [BD6, reference compound]
effect on binding of human protein S to C4BP (SPR response) [1]: the same response was observed as with protein S alone

IC50 (read off the curve) [5]: ~40 µM | IC50 (read off the curve) [6]: ~200 µM
Molecule: EKGSYYPGSGIAQFHIDYNNVS [SL2 synthetic peptide (protein S residues 439-460)]

IC50 (read off the curve) [6]: ~90 µM
Molecule: LVTVEKGSYYPGSGIAQFHIDYNNVSSAEGWHVN [SL7 synthetic peptide (protein S residues 435-468)]

IC50 (read off the curve) [5]: ~30 µM
Molecule: SGIAQFHIDYNNVSSAEGWHVN [SL6 synthetic peptide (protein S residues 447-468)]

IC50 [7]: ~2 µM
B1: plasma purified human protein S (other, UniProt P07225 42-676, looked up)
chain: ANSLLEETKQGNLERECIEELCNKEEAREVFENDPETDYFYPKYLVCLRSFQTGLFTAARQSTNAYPDLRSCVNAIPDQCSPLPCNEDGYMSCKDGKASFTCTCKPGWQGEKCEFDINECKDPSNINGGCSQICDNTPGSYHCSCKNGFVMLSNKKDCKDVDECSLKPSICGTAVCKNIPGDFECECPEGYRYNLKSKSCEDIDECSENMCAQLCVNYPGGYTCYCDGKKGFKLAQDQKSCEVVSVCLPLNLDTKYELLYLAEQFAGVVLYLKFRLPEISRFSAEFDFRTYDSEGVILYAESIDHSAWLLIALRGGKIEVQLKNEHTSKITTGGDVINNGLWNMVSVEELEHSISIKIAKEAVMDINKPGPLFKPENGLLETKVYFAGFPRKVESELIKPINPRLDGCIRSWNLMKQGASGIKEIIQEKQNKHCLVTVEKGSYYPGSGIAQFHIDYNNVSSAEGWHVNVTLNIRPSTGTGVMLALVSGNNTVPFAVSLVDSTSEKSQDILLSVENTVIYRIQALSLCSDQQSHLEFRVNRNNLELSTPLKIETISHEDLQRQLAVLDKAMKAKVATYLGGLPDVPFSATPVNAFYNGCMEVNINGVQLDLDEAISKHNDIRAHSCPSVWKKTKNS
modifications: 125I-labelled where used as tracer in the microtiter equilibrium assay
notes: mature; also called PS; free protein S
